For assay [1], the target named is HLA-B*40:01. Kind of assay: IEDB peptide-MHC binding, purified MHC/competitive/radioactivity; filed as Kd, often an IC50 or EC50 that approximates it; ≥ and ≤ were set here for values at or beyond the usual limits of such assays.
The target in assay [2] is HLA-B*44:02. The description is as above.
Assay [3] has as its target HLA-B*44:03. Described as above.
Assay [4] concerns the target HLA-A*01:01. The assay is described as above.
Assay [5] concerns the target HLA-A*26:01. Described as above.
In assay [6] the target is HLA-A*30:02. The assay is described as above.
Assay [7] deals with HLA-A*30:01. The description is as above.
Assay [8] has as its target HLA-A*32:01. The assay is described as above.
In assay [9] the target is HLA-A*29:02. Described as above.
The target of assay [10] is HLA-A*02:01. In words: IEDB peptide-MHC binding, purified MHC/competitive/fluorescence; filed as Kd, often an IC50 or EC50 that approximates it; ≥ and ≤ were set here for values at or beyond the usual limits of such assays.
For assay [11], the target named is HLA-B*48:01. Kind of assay: IEDB peptide-MHC binding, purified MHC/direct/fluorescence; filed as Kd, often an IC50 or EC50 that approximates it; ≥ and ≤ were set here for values at or beyond the usual limits of such assays.
Assay [12] addresses HLA-A*02:01. In words: IEDB peptide-MHC binding, purified MHC/competitive/radioactivity; filed as Kd, often an IC50 or EC50 that approximates it; ≥ and ≤ were set here for values at or beyond the usual limits of such assays. As to conditions: source organism: Lassa virus Josiah.
In assay [13] the target is HLA-A*02:03. The description is as above. As to conditions: source organism: Vaccinia virus WR.
The target in assay [14] is HLA-A*02:02. Described as above. As to conditions: source organism: Vaccinia virus WR.
Assay [15] concerns the target HLA-A*02:06. The description is as above. As to conditions: source organism: Vaccinia virus WR.
In assay [16] the target is HLA-B*53:01. The assay is described as above. As to conditions: source organism: Dengue virus 2 Jamaica/1409/1983.
Assay [17] has as its target HLA-B*51:01. The description is as above.
The target in assay [18] is HLA-B*18:01. Kind of assay: IEDB peptide-MHC binding, purified MHC/direct/fluorescence; filed as Kd, often an IC50 or EC50 that approximates it; ≥ and ≤ were set here for values at or beyond the usual limits of such assays.
Assay [19] deals with HLA-B*57:01. The assay is described as above. To be noted: source organism: Entamoeba histolytica HM-1:IMSS.
Assay [20] addresses HLA-B*58:01. The description is as above. As to conditions: source organism: Entamoeba histolytica HM-1:IMSS.
Assay [21] addresses HLA-B*40:01. The description is as above. As to conditions: source organism: Mammarenavirus lassaense.
Setting [22] is: source organism: Dengue virus 1 Nauru/West Pac/1974.
Setting [23] is: source organism: Mammarenavirus whitewaterense.
Where [24] appears, read: source organism: Dengue virus 1 Brazil/97-11/1997.
[25] abbreviates: source organism: West Nile virus.
The mark [26] stands for this setting: source organism: Dengue virus 1 Singapore/S275/1990.
Where [27] appears, read: source organism: Dengue virus 2 Jamaica/1409/1983.
Where [28] appears, read: source organism: Mammarenavirus guanaritoense.
Setting [29] is: source organism: Dengue virus 4 Philippines/H241/1956.

A word on the Kd: it is the free concentration of one partner at which half of the binding sites on the other are occupied at equilibrium, for simple one-to-one binding.

Regarding AEPPFGESYI, the Kd was found to be 183 nM in [1] (setting [22]), 596 nM in [2] (setting [22]) and 877 nM in assay [3] (setting [22]). Consider YVSSIFLHL, for which the Kd is 514 nM in [4] (setting [23]); 1850 nM in assay [5] (setting [23]); 12.5 µM in [6] (setting [23]); 4.82 µM in assay [7] (setting [23]); at least 51 µM in assay [8] (setting [23]); 15.7 nM in [9] (setting [23]). For the sequence ALMEWLKTRPI, the Kd in [10] (source organism: Influenza A virus (A/swine/Hannover/1/1981(H1N1))) is 16.9 nM. Consider RELKCGSGI, for which the Kd in assay [1] (setting [24]) is 13.8 nM; in assay [2] (setting [24]), 119 nM. In assay [11] (setting [25]), LRWLVERRF showed a Kd of at least 20 µM.

With NMETLNMTM, the Kd in assay [12] was 1.39 µM. As for KEISNMLNI, the dissociation constant Kd in assay [1] (setting [26]) is 191 nM; in assay [2] (setting [26]), 74.6 nM; in assay [3] (setting [26]), 68.7 nM. In the case of NENDQYIYM, the results for the Kd in assay [2] (setting [27]) and in [3] (setting [27]) were 25.5 nM and 208 nM, respectively. Regarding DLFATQPGL, the Kd in [12] was 12.5 µM. Turning to QIFNIISYI, the Kd is 31.1 nM in [10] (source organism: Variola virus), 15.1 nM in assay [13], 111 nM in [14] and 1.78 nM in [15].

For LFDVIPVSY, the Kd in [4] (setting [28]) was 613 nM; in assay [5] (setting [28]), at least 51900 nM; in assay [6] (setting [28]) it was 1.91 µM; in assay [7] (setting [28]) it was at least 21.1 µM; in assay [8] (setting [28]) it was 9.75 µM; in [9] (setting [28]) it was 67.3 nM. In assay [10] (source organism: Influenza A virus (A/turkey/Wisconsin/1968(H5N9))), MLMPRQKI showed a Kd of 1530 nM.

Take LPETLETLLL: the dissociation constant Kd in assay [16] worked out at 37.6 nM; in assay [17] (setting [27]), 11 µM. For the sequence NEAKITDIM, the equilibrium dissociation constant (Kd) in [1] (setting [24]) is 83.1 nM; in assay [3] (setting [24]) it was 4130 nM. Consider FRKGSSIGK, for which the Kd in [11] (source organism: dengue virus type 1) is at least 20 µM. In the case of VEPWLRGNQF, the Kd in [1] (setting [24]) was 3780 nM; in [2] (setting [24]) it was 73 nM. As for SEMGANFRAD, in assay [2] (setting [24]), the Kd is 137 nM. As for NERRAWNFL, in [3] (setting [29]), the Kd came out at 2090 nM. In assay [18] (setting [25]), WEALDTMYV displayed a Kd of 556 nM. As to IEREIPERSW, the Kd in assay [2] (setting [29]) worked out at 61.6 nM; in assay [3] (setting [29]) it was 649 nM. On to DLKPDNILL, for which the Kd in assay [10] (source organism: Plasmodium yoelii yoelii) came out at 154 nM. On to LPLPWAAGA, for which, in [17] (setting [29]), the Kd was 1.42 µM. VEMGEAAAIF: the results for the Kd in assay [1] (setting [29]), in assay [2] (setting [29]) and in assay [3] (setting [29]) were 971 nM, 12.9 nM and 166 nM, respectively.

YLRPYMHGY: the figures for the Kd in assay [19] and in assay [20] were 5.46 µM and 12 µM, respectively. Turning to KEIAETQHG, the Kd in assay [2] (setting [27]) came to 62.1 nM.

Sequence ELNAELSDKL displayed a Kd in assay [10] (source organism: Vaccinia virus WR) of at least 20000 nM. With QEHETSWHY, the results for the Kd in assay [2] (setting [27]) and in assay [3] (setting [27]) were 46.7 nM and 29.6 nM, respectively. As for EEVQVLALEP, the Kd in assay [3] (setting [27]) was at least 23400 nM. Take PEDPVEIAL: the Kd in [21] was 160 nM; in assay [18] (source organism: Mammarenavirus lassaense) it was at least 20000 nM.

For SMRRNYFTAEV, the Kd in [10] (source organism: Influenza A virus (A/quail/Hong Kong/SF550/00(H6N1))) turned out to be 1330 nM. In assay [10] (source organism: Influenza A virus (A/chicken/Fujian/25/00(H9N2))), WMMAMRYPITA returned a Kd of 1.5 nM.

The values are drawn from the Immune Epitope Database (IEDB).
